Test results reported in PMC10541012.

Assays:
Cdh1 [1] = biological target: Cdh1 (UniProt P53197); assay: FLAG-bead in vitro Co-IP after Cla4; details: reference: wild type FLAG-Set1, Cla4-treated; sites S228
Cdh1 [2] = biological target: Cdh1 (UniProt P53197); assay: FLAG-bead in vitro Co-IP, immunoblot; details: reference: wild type FLAG-Set1; sites S228

| binding against the reference (Cdh1 [1]) | binding against the reference (Cdh1 [2]) | Substance |
| --- | --- | --- |
| stronger | – | Set1 (from UniProt P38827) FLAG-Set1-S228A, Cla4-treated |
| – | stronger | Set1 (from UniProt P38827) FLAG-Set1-S228A |
